3 molecules from article PMC8927117, “Structural Insight into the MCM double hexamer activation by Dbf4-Cdc7 kinase” (Nature Communications, 2022) can be followed below.

“And” between values parts separate entries of the source, which are not always exact repeats. Identical values can stand only once.

B1: Dbf4 (subunit of the full-length DDK) (natural protein, budding yeast, UniProt P32325 1-704, looked up)
chain: MVSPTKMIIRSPLKETDTNLKHNNGIAASTTAAGHLNVFSNDNNCNNNNTTESFPKKRSLERLELQQQQHLHEKKRARIERARSIEGAVQVSKGTGLKNVEPRVTPKELLEWQTNWKKIMKRDSRIYFDITDDVEMNTYNKSKMDKRRDLLKRGFLTLGAQITQFFDTTVTIVITRRSVENIYLLKDTDILSRAKKNYMKVWSYEKAARFLKNLDVDLDHLSKTKSASLAAPTLSNLLHNEKLYGPTDRDPRTKRDDIHYFKYPHVYLYDLWQTWAPIITLEWKPQELTNLDELPYPILKIGSFGRCPFIGDRNYDESSYKRVVKRYSRDKANKKYALQLRALFQYHADTLLNTSSVNDQTKNLIFIPHTCNDSTKSFKKWMQEKAKNFEKTELKKTDDSAVQDVRNEHADQTDEKNSILLNETETKEPPLKEEKENKQSIAEESNKYPQRKELAATPKLNHPVLATFARQETEEVPDDLCTLKTKSRQAFEIKASGAHQSNDVATSFGNGLGPTRASVMSKNMKSLSRLMVDRKLGVKQTNGNNKNYTATIATTAETSKENRHRLDFNALKKDEAPSKETGKDSAVHLETNRKPQNFPKVATKSVSADSKVHNDIKITTTESPTASKKSTSTNVTLHFNAQTAQTAQPVKKETVKNSGYCENCRVKYESLEQHIVSEKHLSFAENDLNFEAIDSLIENLRFQI
notes: Dbf4, budding yeast, 704 residues; Stood in the assay as part of the DDK heterodimer

Experiment in all cases: cryo-EM structure; DDK-DH mixture (ATP-γ-S) mildly crosslinked by Grafix: 20-40% glycerol gradient with 0-0.025% glutaraldehyde, 150 mM KOAc, pH 7.6, 4 °C; States I-IV and Groups I-VI by focused 3D classification
What all share (details): both partners purified

In assay [1] the target is T1, Mcm6 (subunit of the MCM double hexamer) (budding yeast (endogenous in W303), UniProt P53091 1-1017).
T1 construct: Mcm6, budding yeast, endogenous protein from its genomic locus; Stood in the assay as a subunit of the DH; source: endogenous, G1 chromatin of budding yeast (W303), purified as part of the DH
T1 sequence (P53091 whole entry): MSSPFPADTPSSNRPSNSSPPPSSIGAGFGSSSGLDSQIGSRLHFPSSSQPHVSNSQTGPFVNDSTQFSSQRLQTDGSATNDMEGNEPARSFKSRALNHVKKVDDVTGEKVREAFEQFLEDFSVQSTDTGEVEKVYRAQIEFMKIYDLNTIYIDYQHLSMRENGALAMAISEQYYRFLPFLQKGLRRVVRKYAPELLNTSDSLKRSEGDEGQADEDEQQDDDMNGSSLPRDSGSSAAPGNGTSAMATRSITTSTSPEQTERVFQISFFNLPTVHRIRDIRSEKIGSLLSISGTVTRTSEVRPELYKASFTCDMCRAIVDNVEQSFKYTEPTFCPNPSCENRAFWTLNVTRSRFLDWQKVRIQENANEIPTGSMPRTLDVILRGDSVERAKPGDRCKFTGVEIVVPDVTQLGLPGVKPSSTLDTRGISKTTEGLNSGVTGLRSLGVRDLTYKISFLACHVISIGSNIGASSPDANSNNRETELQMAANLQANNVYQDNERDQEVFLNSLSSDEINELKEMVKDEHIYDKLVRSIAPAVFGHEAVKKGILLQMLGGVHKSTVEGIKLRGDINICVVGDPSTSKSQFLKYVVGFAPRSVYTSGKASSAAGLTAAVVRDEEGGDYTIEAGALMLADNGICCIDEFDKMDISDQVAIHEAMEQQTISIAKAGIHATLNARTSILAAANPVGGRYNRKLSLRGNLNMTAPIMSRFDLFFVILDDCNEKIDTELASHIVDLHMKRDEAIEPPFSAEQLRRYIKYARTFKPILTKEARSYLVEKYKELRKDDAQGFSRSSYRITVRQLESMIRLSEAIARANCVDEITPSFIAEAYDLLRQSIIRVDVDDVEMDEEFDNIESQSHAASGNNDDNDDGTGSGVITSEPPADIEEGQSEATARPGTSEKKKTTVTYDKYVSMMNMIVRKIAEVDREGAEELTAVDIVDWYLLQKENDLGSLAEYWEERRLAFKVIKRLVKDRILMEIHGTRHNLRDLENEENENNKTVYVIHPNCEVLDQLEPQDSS

In assay [2] the target is T2, Mcm4 (subunit of the MCM double hexamer) (budding yeast (endogenous in W303), UniProt P30665 1-933).
T2 construct: Mcm4, budding yeast, endogenous protein from its genomic locus; Stood in the assay as a subunit of the DH; source: endogenous, G1 chromatin of budding yeast (W303), purified as part of the DH
T2 sequence (looked up): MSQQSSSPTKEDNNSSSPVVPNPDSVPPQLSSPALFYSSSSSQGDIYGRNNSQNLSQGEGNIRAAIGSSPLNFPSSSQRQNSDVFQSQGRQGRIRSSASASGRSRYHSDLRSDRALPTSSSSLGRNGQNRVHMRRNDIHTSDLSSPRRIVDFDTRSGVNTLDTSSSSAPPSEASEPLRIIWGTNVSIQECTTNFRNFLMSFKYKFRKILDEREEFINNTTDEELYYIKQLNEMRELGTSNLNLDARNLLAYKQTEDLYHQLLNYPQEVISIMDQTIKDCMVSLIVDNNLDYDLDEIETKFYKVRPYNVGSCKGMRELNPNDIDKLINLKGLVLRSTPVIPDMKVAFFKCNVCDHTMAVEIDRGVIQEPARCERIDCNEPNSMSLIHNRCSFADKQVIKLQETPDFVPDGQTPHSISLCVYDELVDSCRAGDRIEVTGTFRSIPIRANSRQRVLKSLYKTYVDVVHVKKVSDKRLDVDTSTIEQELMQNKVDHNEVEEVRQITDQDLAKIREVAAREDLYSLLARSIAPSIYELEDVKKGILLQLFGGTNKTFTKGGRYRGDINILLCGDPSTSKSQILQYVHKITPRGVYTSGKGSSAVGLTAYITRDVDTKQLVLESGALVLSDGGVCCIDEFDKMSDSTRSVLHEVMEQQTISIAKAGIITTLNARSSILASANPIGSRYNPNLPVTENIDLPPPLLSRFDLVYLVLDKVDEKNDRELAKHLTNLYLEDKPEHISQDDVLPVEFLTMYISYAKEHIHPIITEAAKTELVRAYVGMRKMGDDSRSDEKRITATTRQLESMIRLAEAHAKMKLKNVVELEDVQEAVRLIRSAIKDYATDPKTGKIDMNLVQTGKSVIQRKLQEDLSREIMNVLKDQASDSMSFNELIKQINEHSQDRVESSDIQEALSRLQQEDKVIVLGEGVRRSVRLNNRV

For assay [3], the target named is T3, Mcm2 (subunit of the MCM double hexamer) (budding yeast (endogenous in W303), UniProt P29469 1-868).
T3 construct: Mcm2, budding yeast, endogenous protein from its genomic locus; Stood in the assay as a subunit of the DH; source: endogenous, G1 chromatin of budding yeast (W303), purified as part of the DH
T3 sequence (looked up): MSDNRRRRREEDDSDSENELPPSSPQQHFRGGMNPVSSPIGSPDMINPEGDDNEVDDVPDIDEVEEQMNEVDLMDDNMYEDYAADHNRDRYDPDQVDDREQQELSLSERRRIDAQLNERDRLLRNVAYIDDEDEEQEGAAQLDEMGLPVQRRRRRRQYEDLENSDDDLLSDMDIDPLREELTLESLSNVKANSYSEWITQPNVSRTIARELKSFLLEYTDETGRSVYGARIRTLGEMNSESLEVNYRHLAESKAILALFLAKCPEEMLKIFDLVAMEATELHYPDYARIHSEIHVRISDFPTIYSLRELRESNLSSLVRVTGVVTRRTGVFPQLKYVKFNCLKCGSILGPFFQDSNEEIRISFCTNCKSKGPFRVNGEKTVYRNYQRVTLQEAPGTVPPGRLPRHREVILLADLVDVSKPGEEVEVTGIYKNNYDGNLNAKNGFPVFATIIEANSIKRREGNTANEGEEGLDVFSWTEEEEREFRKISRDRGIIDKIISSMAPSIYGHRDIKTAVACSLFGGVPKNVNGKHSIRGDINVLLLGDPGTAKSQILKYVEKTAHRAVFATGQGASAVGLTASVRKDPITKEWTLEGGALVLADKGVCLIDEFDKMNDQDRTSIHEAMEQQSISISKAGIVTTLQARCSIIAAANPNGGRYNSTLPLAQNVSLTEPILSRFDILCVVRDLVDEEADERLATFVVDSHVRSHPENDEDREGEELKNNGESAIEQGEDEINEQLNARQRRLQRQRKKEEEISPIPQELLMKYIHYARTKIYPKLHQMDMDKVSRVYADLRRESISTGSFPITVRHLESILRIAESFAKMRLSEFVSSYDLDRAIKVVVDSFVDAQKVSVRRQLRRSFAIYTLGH

Assay [4] has as its target T4, MCM double hexamer (Mcm2-7 double hexamer), endogenous, wild type (budding yeast (endogenous in W303), UniProt P29469 1-868; P24279 1-971; P30665 1-933; P29496 1-775; P53091 1-1017; P38132 …).
T4 construct: Mcm2, budding yeast, endogenous protein from its genomic locus; Mcm3, budding yeast, endogenous protein from its genomic locus; Mcm4, budding yeast, endogenous protein from its genomic locus; Mcm5, budding yeast, endogenous protein from its genomic locus; Mcm6, budding yeast, endogenous protein from its genomic locus; Mcm7, budding yeast, endogenous protein from its genomic locus; Either …

Assay [5] deals with B1.

T4 sequence (P24279 whole entry, chain 2 of 4): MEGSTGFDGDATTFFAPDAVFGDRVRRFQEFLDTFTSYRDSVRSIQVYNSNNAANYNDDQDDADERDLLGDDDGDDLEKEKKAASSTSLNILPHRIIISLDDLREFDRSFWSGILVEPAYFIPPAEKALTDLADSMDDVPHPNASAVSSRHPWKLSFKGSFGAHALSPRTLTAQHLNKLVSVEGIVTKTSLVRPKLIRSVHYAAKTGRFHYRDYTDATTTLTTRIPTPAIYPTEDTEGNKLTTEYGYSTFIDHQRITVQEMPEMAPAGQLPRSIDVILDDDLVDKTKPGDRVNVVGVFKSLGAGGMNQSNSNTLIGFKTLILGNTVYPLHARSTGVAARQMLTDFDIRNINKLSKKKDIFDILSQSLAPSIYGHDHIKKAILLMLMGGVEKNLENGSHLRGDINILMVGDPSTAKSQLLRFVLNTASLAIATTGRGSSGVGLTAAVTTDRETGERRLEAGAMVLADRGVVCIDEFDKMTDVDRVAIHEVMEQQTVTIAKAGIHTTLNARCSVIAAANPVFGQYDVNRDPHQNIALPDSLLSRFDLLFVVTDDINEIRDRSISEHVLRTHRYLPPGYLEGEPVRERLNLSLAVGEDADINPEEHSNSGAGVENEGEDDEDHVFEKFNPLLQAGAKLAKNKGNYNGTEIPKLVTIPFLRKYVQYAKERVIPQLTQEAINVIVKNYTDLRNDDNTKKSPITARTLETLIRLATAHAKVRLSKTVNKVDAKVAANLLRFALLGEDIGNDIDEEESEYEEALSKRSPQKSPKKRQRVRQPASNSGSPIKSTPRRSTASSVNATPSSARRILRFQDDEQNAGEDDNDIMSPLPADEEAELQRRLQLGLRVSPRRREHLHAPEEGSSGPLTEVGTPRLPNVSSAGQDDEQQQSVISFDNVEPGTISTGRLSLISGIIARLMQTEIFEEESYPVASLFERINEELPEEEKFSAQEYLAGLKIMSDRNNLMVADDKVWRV
T4 sequence (P29496 whole entry, chain 4 of 4): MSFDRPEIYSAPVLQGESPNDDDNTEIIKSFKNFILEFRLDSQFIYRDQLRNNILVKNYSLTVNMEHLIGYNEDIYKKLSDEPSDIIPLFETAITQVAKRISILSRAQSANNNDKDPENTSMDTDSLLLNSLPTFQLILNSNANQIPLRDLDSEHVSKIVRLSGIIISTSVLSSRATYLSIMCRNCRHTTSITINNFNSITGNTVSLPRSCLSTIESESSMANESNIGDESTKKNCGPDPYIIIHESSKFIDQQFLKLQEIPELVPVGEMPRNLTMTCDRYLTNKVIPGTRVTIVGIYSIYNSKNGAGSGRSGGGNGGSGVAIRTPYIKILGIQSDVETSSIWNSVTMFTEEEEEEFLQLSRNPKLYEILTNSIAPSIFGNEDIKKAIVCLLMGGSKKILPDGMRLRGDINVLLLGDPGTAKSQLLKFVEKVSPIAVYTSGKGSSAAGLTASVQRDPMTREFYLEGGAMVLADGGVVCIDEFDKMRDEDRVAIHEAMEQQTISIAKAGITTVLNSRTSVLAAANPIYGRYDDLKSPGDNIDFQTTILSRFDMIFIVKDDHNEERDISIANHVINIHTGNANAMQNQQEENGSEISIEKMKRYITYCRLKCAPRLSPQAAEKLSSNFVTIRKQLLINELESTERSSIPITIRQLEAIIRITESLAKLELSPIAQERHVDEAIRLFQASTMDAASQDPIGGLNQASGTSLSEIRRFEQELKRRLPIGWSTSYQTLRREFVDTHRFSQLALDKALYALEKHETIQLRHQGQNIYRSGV
T4 sequence (P53091 whole entry, chain 5 of 4): as the sequence (P53091 whole entry) above
T4 sequence (P38132 whole entry, chain 6 of 4): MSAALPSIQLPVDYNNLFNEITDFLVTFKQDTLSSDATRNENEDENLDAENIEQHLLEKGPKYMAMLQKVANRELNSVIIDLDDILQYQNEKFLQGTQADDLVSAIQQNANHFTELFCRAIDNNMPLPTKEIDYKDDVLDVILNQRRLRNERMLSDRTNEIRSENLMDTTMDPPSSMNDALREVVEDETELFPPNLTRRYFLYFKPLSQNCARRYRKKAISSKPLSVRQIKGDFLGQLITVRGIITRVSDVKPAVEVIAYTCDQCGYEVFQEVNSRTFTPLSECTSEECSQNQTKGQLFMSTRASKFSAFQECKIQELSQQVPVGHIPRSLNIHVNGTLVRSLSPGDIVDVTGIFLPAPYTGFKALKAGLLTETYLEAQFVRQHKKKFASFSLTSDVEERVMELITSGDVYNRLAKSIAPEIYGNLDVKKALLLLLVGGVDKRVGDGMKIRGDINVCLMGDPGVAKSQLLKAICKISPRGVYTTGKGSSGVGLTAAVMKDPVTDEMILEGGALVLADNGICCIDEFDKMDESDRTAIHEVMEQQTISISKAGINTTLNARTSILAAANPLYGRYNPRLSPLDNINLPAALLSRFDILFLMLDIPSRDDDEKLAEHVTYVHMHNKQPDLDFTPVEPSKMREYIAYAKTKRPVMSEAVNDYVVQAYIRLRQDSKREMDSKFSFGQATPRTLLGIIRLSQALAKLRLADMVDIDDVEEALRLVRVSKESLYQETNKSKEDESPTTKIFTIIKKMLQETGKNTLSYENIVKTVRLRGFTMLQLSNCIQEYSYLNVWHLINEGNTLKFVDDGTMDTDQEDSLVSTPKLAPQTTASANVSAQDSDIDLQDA

Consider B1, for which the binding result in assay [1], in assay [2] and in assay [3] was “binds” in each case.

B2: Dbf4-dependent kinase Cdc7 (DDK), full-length Cdc7-Dbf4 heterodimer (complex, budding yeast)
chain 1: MVSPTKMIIRSPLKETDTNLKHNNGIAASTTAAGHLNVFSNDNNCNNNNTTESFPKKRSLERLELQQQQHLHEKKRARIERARSIEGAVQVSKGTGLKNVEPRVTPKELLEWQTNWKKIMKRDSRIYFDITDDVEMNTYNKSKMDKRRDLLKRGFLTLGAQITQFFDTTVTIVITRRSVENIYLLKDTDILSRAKKNYMKVWSYEKAARFLKNLDVDLDHLSKTKSASLAAPTLSNLLHNEKLYGPTDRDPRTKRDDIHYFKYPHVYLYDLWQTWAPIITLEWKPQELTNLDELPYPILKIGSFGRCPFIGDRNYDESSYKRVVKRYSRDKANKKYALQLRALFQYHADTLLNTSSVNDQTKNLIFIPHTCNDSTKSFKKWMQEKAKNFEKTELKKTDDSAVQDVRNEHADQTDEKNSILLNETETKEPPLKEEKENKQSIAEESNKYPQRKELAATPKLNHPVLATFARQETEEVPDDLCTLKTKSRQAFEIKASGAHQSNDVATSFGNGLGPTRASVMSKNMKSLSRLMVDRKLGVKQTNGNNKNYTATIATTAETSKENRHRLDFNALKKDEAPSKETGKDSAVHLETNRKPQNFPKVATKSVSADSKVHNDIKITTTESPTASKKSTSTNVTLHFNAQTAQTAQPVKKETVKNSGYCENCRVKYESLEQHIVSEKHLSFAENDLNFEAIDSLIENLRFQI
chain 2: MTSKTKNIDDIPPEIKEEMIQLYHDLPGIENEYKLIDKIGEGTFSSVYKAKDITGKITKKFASHFWNYGSNYVALKKIYVTSSPQRIYNELNLLYIMTGSSRVAPLCDAKRVRDQVIAVLPYYPHEEFRTFYRDLPIKGIKKYIWELLRALKFVHSKGIIHRDIKPTNFLFNLELGRGVLVDFGLAEAQMDYKSMISSQNDYDNYANTNHDGGYSMRNHEQFCPCIMRNQYSPNSHNQTPPMVTIQNGKVVHLNNVNGVDLTKGYPKNETRRIKRANRAGTRGFRAPEVLMKCGAQSTKIDIWSVGVILLSLLGRRFPMFQSLDDADSLLELCTIFGWKELRKCAALHGLGFEASGLIWDKPNGYSNGLKEFVYDLLNKECTIGTFPEYSVAFETFGFLQQELHDRMSIEPQLPDPKTNMDAVDAYELKKYQEEIWSDHYWCFQVLEQCFEMDPQKRSSAEDLLKTPFFNELNENTYLLDGESTDEDDVVSSSEADLLDKDVLLISE
notes: Dbf4, budding yeast, 704 residues; Cdc7, budding yeast; Treated with lambda phosphatase during purification; also called Dbf4-Cdc7 kinase complex; WT DDK
The term stoichiometry N denotes a count of units in the complex or per binding partner. Take B2: the “stoichiometry N” value in assay [4] is 2 DDK per DH and 1 DDK per DH.

B3: Cdc7 (subunit of the full-length DDK) (enzyme, budding yeast, UniProt P06243 1-507, looked up)
chain: MTSKTKNIDDIPPEIKEEMIQLYHDLPGIENEYKLIDKIGEGTFSSVYKAKDITGKITKKFASHFWNYGSNYVALKKIYVTSSPQRIYNELNLLYIMTGSSRVAPLCDAKRVRDQVIAVLPYYPHEEFRTFYRDLPIKGIKKYIWELLRALKFVHSKGIIHRDIKPTNFLFNLELGRGVLVDFGLAEAQMDYKSMISSQNDYDNYANTNHDGGYSMRNHEQFCPCIMRNQYSPNSHNQTPPMVTIQNGKVVHLNNVNGVDLTKGYPKNETRRIKRANRAGTRGFRAPEVLMKCGAQSTKIDIWSVGVILLSLLGRRFPMFQSLDDADSLLELCTIFGWKELRKCAALHGLGFEASGLIWDKPNGYSNGLKEFVYDLLNKECTIGTFPEYSVAFETFGFLQQELHDRMSIEPQLPDPKTNMDAVDAYELKKYQEEIWSDHYWCFQVLEQCFEMDPQKRSSAEDLLKTPFFNELNENTYLLDGESTDEDDVVSSSEADLLDKDVLLISE
notes: Cdc7, budding yeast; Stood in the assay as part of the DDK heterodimer; also called kinase core
On to B3, for which, in assay [5], the binding result was “binds”.
